Experimental data taken from the DeepSol protein solubility set.

test: soluble on expression in E. coli; label from the status in PepcDB or PDB records

| Sequence | soluble on expression in E. coli |
| --- | --- |
| MDWLLTPGPVRLHPKALEALARPQLHHRTEAAREVFLKARGLLREAFRTEGEVLILTGSGTLAMEALVKNLFAPGERVLVPVYGKFSERFYEIALEAGLVVERLDYPYGDTPRPEDVAKEGYAGLLLVHSETSTGALADLPALARAFKEKNPEGLVGADMVTSLLVGEVALEAMGVDAAASGSQKGLMCPPGLGFVALSPRALERLKPRGYYLDLARELKAQKEGESAWTPAINLVLAVAAVLEEVLPRLEEHLALKAWQNALLYGVGEEGGLRPVPKRFSPAVAAFYLPEGVPYARVKEAFAQRGAVIAGGQGPLKGKVFRLSLMGAYDRYEALGVAGMFREVLEEILPAS | soluble |
| MSDNALSPQKNHRRLAETLVDRFAQRMRDGVLVRGEKLPSEIHIMEAEGVSRTVVRDALSRMQAAGLVETRHGVGTFVLDMPPPEGFSVGPATIASVADVLNLLEFRLSLEVEAAGLAAQRRSPEALLELKRAFDALLEGPQKSGTTINADFQFHLKIAKASGNAYLIDIMKHLGTKLIPRTRMNSAYTGQSDRSAYLAGINAEHRQIYNAIAEGNVDAARAAMYLHLNGSRMRLRRTQALYSD | not soluble |
| MLEKHWSKSLVDSFESSKNKPSNLNGKKYILSMFPYPSGRLHIGHMRVYTISDATARYYRLNGYEVIHPIGWDSFGLPAENAARDKGVDPREWTINNIESMKQQLLKTKILFDWEKEISTCEPEFFRWTQWIFCKLFEYGLVKRTSSEVNWDPIDKTVLAAEQIDNDGKSWRSGAKAEKKKLSQWMIETPKYAKRLQEGLRKMSEQWGEVADIQANWIGKCDVYRFMLPVMKDGSNDEIIDLRIKDIFEISNAEFLVLKQSHSLADKDATQFPYKLPFQVLNGVTGRQIPVIVVEDTYQPDVTSFLNSRIGNFQKDKILVEKFAIAEPKHKRKLTKNDIQEMASFGGYGGYETSRTLTDWVVSRQRGWGTPIPMIQTKDGKRVAVQLNKLPVLGSDRGQEVDKERFGESGVFDTDTLDTFFDSAWYYLRYLDNKNKSELISKGAMKNMPVDVYVGGIEHAAVHMFFARFVAYFLKDINVIQTAEPFTDLIPQGIVRGKTFIEKETGKYLGSEDVQQSGDKLTLKNDSSVEVDAVYEKMSKSKNNGVDLAAILDSEGVDMTRLRLLEAAAPRAPINWGETDLKGIKKLLDRIAAINSQIVDARDNGKPIELKKEIDGSIKETYNFFVRNVGMCLEVLHLHNTALMRIQGFTNALKKVDPIYLAHSPEGQRAVKSLIIMLQVFCPHVASEMWSALANDGSLVSDQKWPEVDKDADIEFLLMIDGVSGGRPSLDRRIIEEMSMDQLWERATFYEHADILRMMKEDGMKLKNSSYISRKGFHVTLSCSLEGDKEENRKKIGKILDRIQAEKRKLEIGKKGGKRKKEKKIVNK | not soluble |
| MSLDIVSHQKIRRFEAGTFQEIESSVATEYPLTIYVNDQELVTIVCTPEYLEDLVVGFLTSEGIVRGPRDINSVDIIEATGHAKVSANFVNKFNAKYRGKRYITSCCGKSRENFYFQSDASLVNVKQNGNLQLTTDMIFRLMEKFEQNSATFHQTGGVHNAALCSSAEIIYSRMDIGRHNALDKIYGRALQDGTSTEDKAIIFSGRISSEILVKTAKLGCGIILSRSAPTELAINMAEELNITTVGFIRGDRLNVYSGFERITEGHHHHHH | soluble |
| MAHHHHHHMHRFRVCALGAAFCVARRWRSGGGPGDRRVRTDWYRCYPSLMEEKDRDMYHCYYPYLFDHGDKMSLYPKIPDNPREWQVEQLQTTYDAIREDKYDAFVRLRAKFPELYQDTYAWDNPPPFGEFNMFYSVRFGMIGVKAFTCKDYDDLGNQFDCTAFWFPDNQIVKHSTRNGDVGTDKVYVGAMNVPVEFHKPHVAAFYKAAGVPVKHVSAGFPVTPDAYAPVGTKLDVRHFKPGQEVTITFQNTDYGYQGVMFRHGFDGGYVWLGDSKWQRRPGCMGAEGQKRIYPGHRMAGQTGASAETYDGVPVWRIDYKNSLIYLPTLIDADVGTYVKFRDTINTKGYTLWNEHRGTPPFPTFIPSEEEDLSKLATDEGQLTSPPLYMYFRDEFAAAQLVTQADVEDAKSAKPATAAPKKKVYDLKKYTEARKKYRKNLQKARKYKLMGVRTRAHEKQQEARRAKILKYKRVKT | not soluble |
| GSSRGIPPKIEALPSDISIDEGKVLTVACAFTGEPTPEVTWSCGGRKIHSQEQGRFHIENTDDLTTLIIMDVQKQDGGLYTLSLGNEFGSDSATVNIHIRSI | soluble |
| SWQTYVDTNLVGTGAVTQAAIIGHDGNTWATSAGFAVSPANGAALANAFKDATAIRSNGFELAGTRYVTIRADDRSVYGKKGSAGVITVKTSKAILIGVYNEKIQPGTAANVVEKLADYLIGQGF | soluble |
| MSLCRVLAVKPSSYYDWMNRNISDQQIHRNQCELLVKAAHTETRERYGVDRLQAHLRQQGHYVSQYMIRSIKEEYGIKCRRHKRFKMTTNSNHNKLVYLNVLDQQFDAKHPNESWVSDITYIWTNEGWLYLAGVKDLYTKELVGYAINKRMTADLVCRALNMAIKNKRPRQGLIVHSDRGSQYCSHAYHKIIEQHQFTGSMSAKGNCFDNAPIESFWGVLKNELVYHQDYKTRFEAISDITQYIELEYNEERLAKHCFAATQDKSCARSGAREGHHHHHH | soluble |
| MNTLVLPKTQHLVVFQEVIRSGSIGSAAKSLGLTQPAVSKIISDVEAYFGVELIVRKNTGVTLTEAGQVLLSWSESITREMKNMINEMNSMTCNTVVDVSFGFPSLIGFTFMSDMIHKFKEVFPKAQVSMYEAQLSSFLPALRDGRLDFAIGTLSNEMQLQDLHVEPLFESEFVLVASKSRTCTGTITLESLKDEQWVLPQTNMGYYSELLTTLQRNGISIENIVKTDSVVTIYNLVLNADFLTVIPCDMTTPFGSNQFITIPIQDTLPVARYAAVWSKNYRIKKAASVLVELAKQYSSYNGCRRRQLIEIE | soluble |
| MNTTGETTQPFYSHCDMNDPLCRAERLRTQFDYYRWHSLQPDDNDDVDTYTTDIATRIGKTQRYVCDHLDAIYYLTQLPQLHTVYQQLWHLDDTRLIAITRIISALPTTYYDAIDTHLTRWLTPTQPAQTIPSTRAITRFLRKTITHLGFHLDNTRKPEQYVYIYDAGHGLAGIDALIHAGVAEMFETTLRSIKKTHSCDDSTALQLLLEDKTSVVINVYDTGTGITYTPQGTALPQVPEHLVIRVLGDADVAVSTGYRFTEAMRRFIQGRDGVCRFPGCGVPAQWCDIDHVEEYDLGGVTGAVNAQCLCRHHHNVKTSRRVDCEIGAGGVVTWQIGDRRVVTTPEGVLAGQTFRQRREKKIKKAA | not soluble |
| MSLKIESNAFRLIEPGVFKKDTLTHDFEEKDIIVKPTKASVCHADLRYYTGNRRPEALAKKLPMALFHEGIGIVEDSKHPDFQQGDKVVIVPNIPSHLRKGTYPTTSFQDNYDENAVFMGSGFDGICQDRMVVSGDNVVKVPTDLDEDVALLAELCSVSLFPINQLDEITTETSPQVAIFGDGPVGYLAATALHYIYGIDKANLIVFGAVQEKLAAFEDFATTHLVFDFDFNQYRGVHTVFECTGGKFSESAINQAIDLIDRQGHIVLMGVTEERVGINTRDVLEKGLTFSGSSRSTKREFEQLIHAFSNKQYQQALRQLIPETYYHIHDTSDLKEAMDDTAAHKGWKKTYLQYHEGHHHHHH | soluble |
| MKTKEDMQELYFPTPKLIEWENGVRQYSTVRGDTEVLMSYVPPHTNVEPHQHKEVQIGMVVSGELMMTVGDVTRKMTALESAYIAPPHVPHGARNDTDQEVIAIDIKRLKADETYTSPEDYFLDIFKTRDLLPGMEVTFFVEDWVEIMLAKIPGNGGEMPFHKHRNEQIGICIGGGYDMTVEGCTVEMKFGTAYFCEPREDHGAINRSEKESKSINIFFPPRYNRAKAKKMKADELEHHHHHH | soluble |
| SSVASALLLQEAQAGFCRVDGTIDNNHTGFTGSGFANTNNAQGAAVVWAIDATSSGRRTLTIRYANGGTANRNGSLVINGGSNGNYTVSLPTTGAWTTWQTATIDVDLVQGNNIVQLSATTAEGLPNIDSLSVVGGTVRAGNCG | soluble |
| MDNPSKEIDLLLQSSYDMTILTKQGEYNVDSMLSRAHHVASRISSMYKYEKLLQDMQDLTVNGNRRKLILNDLQRENKQIMALQDENRQLRETTQEYLATMRNILDSHAEIEGSIEMGQMNSDIDDADIDRIIFEMANTDQEARLKKKALEMELMMDDLEKMRKEEYQELQLAVQRNKNYKELFKLACFSNQSANSILNSAMKIISEGDGFDDDEAQENEDLNETIIHKKQ | not soluble |
| QSKFKKYSKMPLASGMTGKDVAEKMLHDNGIYDVRVTSTPGMLTDHYNPANKTVNLSEGVYGSNSVAAAAVAAHECGHAVQHARAYAPLKMRS | not soluble |
| MSTFFQQTAQAMIAKHIDRFPLLKLDQVIDWQPIEQYLNRQKTRYLRDHRGRPACPLLSMFKAVLLGQWHNLSDPELEHSLITRIDFNLFCRFDELSIPDYSTLCRYRNRLAQDDTLSELLELINRQLTEKGLKVEKASAAVVDATIIQTVGSKQRQAIEVDEEGQVSGQTTLSKDKNARWTKKNSLYKLGYKQHTRTDAEGYIEKLHITPANAHECKHLSPLLEGLPEGTTIYADKGYDSAENRQHLEEHQLQDGIMRKACRNRPLTETQTKRNRYLSKTRYVVEQSFGTLHRKFRYARAAYFGLICARCRLKGSPDA | not soluble |
| MKKALMICAAGTMIFVSYSAENTAPEVSKAVEDRITKDYDQDGVYSSYEKALRRAQGSIYVTLPEKRGEWYSTLDKIKEEEKELMPDEEARMRRKR | not soluble |
| MLNEIICAGFGGQGVLTAGKIIMYVAYKAEKKITWFPSYGNEMRGGSANCNVVVSDEKIANPCVKNPDILLGMNSVSVDKYESLMKKNGYMFVNESLVSKDRKYREDINVIKVPVTEIAQNLGNEKAANICMLGAMVKSLDLFTKEEFESGMCEYFENQGKGKFNSKNVEAFEAGYDYE | not soluble |
| MGSDKIHHHHHHMTFEKNEHKDIAVIGAGPVGMLAALNLAHKGYSVCLIGPPVDTDELRTTALMMPAIHMLQKLNIWNIVKSHAAALSFIRIIDITSRIIRAPTVNFSSAEIGEEAFGYNIPNVELNNALVASVAHTPNIKRFFSSAHFFHHQPNHIHVTLADGGVVQASLIVAADGRDSRTREAADISVKKWNYPQTALVLNFSHDLSHQNTSTEFHTESGPFTQVPLPGHRSSLVWVVNPSRAEELLRLESKVIAKVIEEQMQSMLGKLTLETPIQAWPLSGLISQRFAANRTILVGEAAHVFPPIGAQGLNLGFRDIQTLIDILPNKISDFNSKKIVAHYNKCRKPDILIRSGSVHMFNSALLSNMLPVHIIRSFGLGLLRNCSPLRNLFTREGIYPGYGFKKIMQTFPIKSHKQESSIFFSVLVKDRDSEMISKSSLF | not soluble |
| MSLKKAIAYMRFSSPGQMSGDSLNRQRRLIAEWLKVNSDYYLDTITYEDLGLSAFKGKHAQSGAFSEFLDAIEHGYILPGTTLLVESLDRLSREKVGEAIERLKLILNHGIDVITLCDNTVYNIDSLNEPYSLIKAILIAQRANEESEIKSSRVKLSWKKKRQDALESGTIMTASCPRWLSLDDKRTAFVPDPDRVKTIELIFKLRMERRSLNAIAKYLNDHAVKNFSGKESAWGPSVIEKLLANKALIGICVPSYRARGKGISEIAGYYPRVISDDLFYAVQEIRLAPFGISNSEGHHHHHH | soluble |
